Where no end group is shown, it is not given here. [ ]: non-standard residue; d: D form. The star is where a group is joined. FITC = O=C1OC2(c3ccc(O)cc3Oc3cc(O)ccc32)c2ccc(NC(=S)*)cc21; pT = C[C@@H](OP(=O)(O)O)[C@H](N)C(=O)O; pS = N[C@@H](COP(=O)(O)O)C(=O)O

Assay [1] concerns the target TLN1 PTB (talin-1, phosphotyrosine binding-like domain) (human) (UniProt Q9Y490). Kind of assay: fluorescence polarisation; competition: unlabelled peptide in serial dilution against the protein domain (master mix at four times the KD) with its FITC-labelled probe peptide; 50 mM KPO4 or NaPO4 pH 7.5; Ki calculated from IC50.
Assay [2] addresses KPNB1 HEAT (importin subunit beta-1, HEAT repeat) (human) (UniProt Q14974). The assay is described as above.
In assay [3] the target is MDM2 SWIB (E3 ubiquitin-protein ligase MDM2, SWIB domain) (human) (UniProt Q00987). The description is as above.
The target of assay [4] is CLTC (clathrin heavy chain 1, Clathrin-propeller domain) (human) (UniProt Q00610). Described as above.
For assay [5], the target named is KEAP1 Kelch (kelch-like ECH-associated protein 1, Kelch domain) (human) (UniProt Q14145). Described as above.
Assay [6] has as its target KEAP1 Kelch domain, MBP-tagged (human) (UniProt Q14145). As to the kind of experiment: fluorescence polarisation; competition: unlabelled peptide in serial dilution against FITC-labelled probe peptide and protein (master mix with protein at four times the KD), 50 mM KPO4 pH 7.5; sigmoidal dose-response fit, KI. In general terms: Polarisation of emitted light reports the rotation of a fluorescent probe.

Assay [7] has as its target SFN 14-3-3 (14-3-3 protein sigma) (human) (UniProt P31947). Kind of assay: fluorescence polarisation; competition: unlabelled peptide in serial dilution against the protein domain (master mix at four times the KD) with its FITC-labelled probe peptide; 50 mM KPO4 or NaPO4 pH 7.5; Ki calculated from IC50.
Assay [8] addresses MDM2 SWIB, cleaved from the His‐GST tag, for affinity measurements (human). Kind of assay: fluorescence polarisation; competition: unlabelled peptide in serial dilution displaces a FITC-labelled probe peptide from the bait domain (master mix with protein at four times the KD of the probe, 10 nM probe, 2 mM DTT); 50 mM KPO4 or NaPO4 pH 7.5; triplicates; probe for KEAP1 Kelch: FITC-NFE2L1 228-243, other probes in Dataset EV6.

Assay [9] concerns the target KPNA4 ARM, MBP‐tagged domain, for affinity measurements (human). As to the kind of experiment: fluorescence polarisation; competition on MBP-tagged KPNA4 ARM: unlabelled peptide in serial dilution displaces FITC-Myc 320-328 (probe for the major pocket) or FITC-NCOR2 1307-1322 (probe for the minor pocket); 50 mM KPO4 pH 7.5; triplicates.
Assay [10] has as its target KPNB1 HEAT (importin subunit beta-1, HEAT repeat) (human) (UniProt Q14974). As to the kind of experiment: fluorescence polarisation; direct saturation binding: protein in serial dilution, FITC-labelled probe peptide fixed (master mix 10 nM probe, 2 mM DTT); 50 mM KPO4 or NaPO4 pH 7.5; quadratic fit.
Assay [11] deals with SFN 14-3-3 (14-3-3 protein sigma) (human) (UniProt P31947). Described as above.
Assay [12] has as its target TLN1 PTB (talin-1, phosphotyrosine binding-like domain) (human) (UniProt Q9Y490). The assay is described as above.
The target of assay [13] is KPNA4 ARM (importin subunit alpha-3, armadillo repeat domain) (human) (UniProt O00629). The assay is described as above.

B1: Integrin beta-3 763-778 peptide (peptide)
peptide: AKWDTANNPLYKEATS-NH2
Regarding B1, in assay [1], the IC50 was 1430 µM and the Ki was 480 µM.

B2: RANBP3 11-26 peptide (peptide)
peptide: Ac-AYAPPVFVFQKDKGQK-NH2
Consider B2, for which the IC50 in assay [2] was 2200 µM.

B3: TPTE 112-125 peptide (peptide)
peptide: DLIFTDSKLYIPLE-NH2
As for B3, in [1], the IC50 is 15 µM and the Ki is 4.9 µM.

B4: NUMB 616-630 peptide with an added N-terminal G (peptide)
peptide: GFEAQWAALENKSKQR
B4: the IC50 in [3] was 130 µM.

B5: GTSE1 645-660 peptide (peptide)
peptide: Ac-LIDLPLIDFCDTPEAHY
Consider B5, for which, in assay [4], the IC50 is 97 µM and the Ki is 39 µM.

B6: TREF1 332-347 peptide (peptide)
peptide: Ac-YMQHLQEQQQQQMHLQ-NH2
On to B6, for which, in assay [5], the IC50 was 490 µM and the Ki is 162 µM. In assay [6], this molecule displayed a Ki of 162 µM.

B7: MAP1A 1831-1847 peptide (peptide)
peptide: Ac-NEPTTPSWLADIPPWVP-NH2
Turning to B7, in assay [7], the IC50 was 1970 µM.

B8: GTSE1 645-660 peptide, phosphothreonine (peptide)
peptide: Ac-LIDLPLIDFCD[pT]PEAHY
Regarding B8, in [4], the IC50 is 87 µM and the Ki was 34 µM.

B9: RNF115_(69–84) peptide, synthetic (peptide)
peptide: THFAELWGHLDHTMFF
The molecule B9 returned a Ki in assay [8] of 0.17 µM.

B10: KIAA1671 600-615 peptide (peptide)
peptide: TPEDDRSFQTVWATVF
Consider B10, for which, in assay [3], the IC50 was 73 µM and the inhibition constant (Ki) was 1.76 µM.

B11: NKX2‐5_(192–207) K194R mutant peptide, synthetic, P52952 192-207 (peptide)
peptide: KCRRQRQDQTLELVGL
B11 displayed a fold loss of affinity against the wild-type peptide in [9] of 10 fold.

B12: NYAP1 542-557 peptide (peptide)
peptide: VGPLTPLWTYPATAAG-NH2
In the case of B12, in [1], the IC50 is 62 µM and the Ki was 20 µM.

B13: MITF 256-271 peptide, Y265C (peptide)
peptide: Ac-YVSGNLIDLCGNQGLP
As to B13, in assay [4], the IC50 was 220 µM and the Ki was 100 µM.

B14: NUP153 1220-1234 peptide with an extra C-terminal Y (peptide)
peptide: Ac-NPPVATFVFGQSSNPY-NH2
In the case of B14, in assay [2], the IC50 was 49 µM and the inhibition constant Ki was 11 µM.

B15: FITC-NUP153 1223-1232 probe peptide (peptide)
peptide: {FITC}-VATFVFGQSS-NH2
B15: in assay [10], the Kd worked out at 106 µM.

B16: FITC-RAF phosphopeptide probe (peptide)
peptide: {FITC}-QRST[pS]TPNVH-NH2
B16: the Kd in assay [11] was 524 µM.

B17: FITC-PIP5K1C 640-655 probe peptide (peptide)
peptide: {FITC}-FPTDERSWVYSPLHYS-NH2
Molecule B17 showed a Kd in assay [12] of 0.15 µM.

B18: RNF115 69-84 peptide (peptide)
peptide: THFAELWGHLDHTMFF
For B18, the half-maximal inhibitory concentration (IC50) in assay [3] is 9 µM.

B19: MITF 256-271 peptide (peptide)
peptide: Ac-YVSGNLIDLYGNQGLP
With B19, in assay [4], the IC50 was 150 µM and the Ki was 63 µM.

B20: PIP5K1C 640-655 peptide, unlabelled (peptide)
peptide: FPTDERSWVYSPLHYS-NH2
Take B20: in assay [1], the IC50 was 0.42 µM and the Ki was 0.066 µM.

B21: ATF5 128-143 peptide (peptide)
peptide: Ac-PPLPPPPLPPAPSLPY-NH2
In the case of B21, the half-maximal inhibitory concentration (IC50) in [5] was 4430 µM. Moreover, the Ki in assay [5] and in [6] was 1470 µM in each case.

B22: FITC-NCOR2 1307-1322 probe peptide (peptide)
peptide: {FITC}-PKRTYDMMEGRVGRAI
Regarding B22, the Kd in [13] was 0.23 µM.

B23: FITC-Myc 320-328 probe peptide (peptide)
peptide: {FITC}-PAAKRVKLD
The molecule B23 had a Kd in [13] of 0.03 µM.

Broadly, the IC50 is the concentration at which inhibition is half-maximal. The Ki is the dissociation constant of the complex between target and ligand, obtained from inhibition or displacement. Usually Kd stands for the equilibrium constant for the complex coming apart. Lower therefore signals higher affinity.

Values taken from publication PMC8769072, “Proteome‐scale mapping of binding sites in the unstructured regions of the human proteome” (Molecular Systems Biology, 2022).
